Results on 29 sequences are retold here after the supplement of paper PMC9170038.

The data set has as its system MS2 coat protein. Briefly: apparent KD of MS2 coat protein; designed switch direction (-1 OFF switch, 1 ON switch): 1; higher = weaker reporter binding. Summed up:
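RNA switches sharing common flanks were transcribed by stalled E. coli RNA polymerase on Illumina chips. A doubling series of SNAP-549-labelled MS2 coat protein, from 0.7 or 1.5 nM to 3 µM, was applied in Tris-HCl pH 7.5 buffer with KCl, MgCl2, BSA, DTT, tRNA and Tween-20. Each step lasted 0.8–1.5 h at the bottom of the series and 10–20 min at the top. Normalised cluster fluorescence was curve-fitted, giving apparent KD as the per-design median over clusters.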

Where [1] appears, read: input ligand: microRNA oligo, concentration not stated.
The mark [2] stands for this setting: Eterna round: R95, input ligand: microRNA oligo, concentration not stated.
The mark [3] stands for this setting: Eterna round: R95, input ligand: FMN 200 uM.
Setting [4] is: Eterna round: R95, input ligand: none.

With “GUGGUGGGUUGAGGAUAUUGGUUGUUGUUGUUCCACAUGAGGAUCACCCAUGUGGGUUGUGGUUUUGAGAAGGUUGGUUGCUGG [salish99_SSNG2_r04_050] (Eterna round: R96, puzzle: Same State NG 2)”, the “apparent KD of MS2 coat protein” value (input ligand: FMN 200 uM) was 0.0172 µM, the “apparent KD of MS2 coat protein” value under setting [1] worked out at 0.0142 µM and the “apparent KD of MS2 coat protein” value (input ligand: none) worked out at 0.0203 µM.

“GUGUGUUGCGGGCAGGAUAUGUAUUUGAGUACAUGAGGAUCACCCAUGUGCGCCUGUUUCAGGCGACAGAAGGGCCUAUCGCGAC [JL-ss2-3.27 ViennaUCT mod] (puzzle: Same State 2)”: the “apparent KD of MS2 coat protein” value under setting [2] stood at 0.106 µM.

On to “GUGUUACAUGAGGAUCACCCAUGUUGUUUUAGAUAAGGAUAUAUGGUAACGAGAGAAAUAAUAGAAGGUAUUAGGC [JR_SS1_Sub062] (puzzle: Same State 1)”, for which the “apparent KD of MS2 coat protein” value under setting [2] worked out at 0.0299 µM.

With “GUUAAACAUGAGGAUCACCCAUGUAAUAAUAUGGGAGGAUAUCAGAAAGUAUGUAUGAAAUGAGAAGGCCUAAUUG [Mat - Same State 1 - Mod of Eli - D78] (puzzle: Same State 1)”, the “apparent KD of MS2 coat protein” value under setting [3] is 0.0579 µM, the “apparent KD of MS2 coat protein” value under setting [2] stood at 0.154 µM and the “apparent KD of MS2 coat protein” value under setting [4] was 0.124 µM.

Consider “GUUAAACAUGAGGAUCACCCAUGUAAUAAUAUGGGAGGAUAUCAGAAAUUAUUUAUUAAAUGAGAAGGCCUAAUUG [Mat - Same State 1 - Mod of Eli - D81] (puzzle: Same State 1)”, for which the “apparent KD of MS2 coat protein” value stood at 0.0536 µM under setting [3], 0.321 µM under setting [2] and 0.15 µM under setting [4].

For “GUUAAACAUGAGGAUCACCCAUGUCAAUGUAGUCGAGGAUAUGGGCAGCUAUGAGGCGUACUAGAAGGCGAAAAGU [Mat - Same State 1 - Mod of JL - D13] (puzzle: Same State 1)”, the “apparent KD of MS2 coat protein” value under setting [3] came out at 0.117 µM, the “apparent KD of MS2 coat protein” value under setting [2] worked out at 0.26 µM and the “apparent KD of MS2 coat protein” value under setting [4] came out at 0.535 µM.

As to “GUUACAUGAGGAUCACCCAUGUAUGUGUGGGAGUAAGUGUCUUAGGAUAUCUAGUAUGUAAUUUAAGAGAAGGAAGAUUGUUGU [JMF's solution 56] (Eterna round: R96, puzzle: Same State NG 3)”, the “apparent KD of MS2 coat protein” value by setting is: (input ligand: FMN 200 uM) 0.217 µM; under setting [1], 0.264 µM; (input ligand: none) 0.261 µM.

As for “GUUACAUGAGGAUCACCCAUGUAUGUGUGGGAGUAAGUGUCUUAGGAUAUCUAGUAUUUAAGUUAAGAGAAGGAAGAUUGUUGU [JMF's solution 62] (Eterna round: R96, puzzle: Same State NG 3)”, the “apparent KD of MS2 coat protein” value came to 0.129 µM (input ligand: FMN 200 uM), 0.078 µM under setting [1] and 0.114 µM (input ligand: none).

“GUUACAUGAGGAUCACCCAUGUAUGUGUGGGAGUAAGUGUCUUAGGAUAUCUAGUAUUUAAUUUUAGAGAAGGAAGAUUGUUGU [JMF's solution 69] (Eterna round: R96, puzzle: Same State NG 3)”: the “apparent KD of MS2 coat protein” value turned out to be 0.128 µM (input ligand: FMN 200 uM), 0.121 µM under setting [1] and 0.134 µM (input ligand: none).

As to “GUUACAUGAGGAUCACCCAUGUAUGUGUGGGAGUAAGUGUCUUAGGAUAUCUAUCAUUUAAUUCAAGAGAAGGAAGAUUGUUGU [JMF's solution 100] (Eterna round: R96, puzzle: Same State NG 3)”, the “apparent KD of MS2 coat protein” value reads like this: (input ligand: FMN 200 uM) 0.126 µM; under setting [1], 0.0961 µM; (input ligand: none) 0.103 µM.

For the sequence “GUUACAUGAGGAUCACCCAUGUAUGUGUGGGAGUAAGUGUCUUAGGAUAUCUAUGAUUUAAUCUAAGAGAAGGAAGAUUGUUGU [JMF's solution 82] (Eterna round: R96, puzzle: Same State NG 3)”, the “apparent KD of MS2 coat protein” value came out at 0.114 µM (input ligand: FMN 200 uM), 0.0768 µM under setting [1] and 0.0953 µM (input ligand: none).

As for “GUUACAUGAGGAUCACCCAUGUAUGUGUGGGAGUAAGUGUCUUAGGAUAUCUAUUAUUUAAAUUAAGAGAAGGAAGAUUGUUGU [JMF's solution 7] (Eterna round: R96, puzzle: Same State NG 3)”, under setting [1], the “apparent KD of MS2 coat protein” value turned out to be 0.093 µM.

For “GUUACAUGAGGAUCACCCAUGUAUGUGUGGGAGUAAGUGUCUUAGGAUAUCUGUUAUUUAACUUAAGAGAAGGAAGAUUGUUGU [JMF's solution 43] (Eterna round: R96, puzzle: Same State NG 3)”, the “apparent KD of MS2 coat protein” value is 0.108 µM (input ligand: FMN 200 uM), 0.0654 µM under setting [1] and 0.105 µM (input ligand: none).

On to “UAAACUAGUUAUAGUGUAAUGCAUAUUAUACAUGAGGAUCACCCAUGUGAUGGUUGGUAUGAUUUUGUUCGUCUUAA [JR_SHM208A_Sub079] (puzzle: Sensor for hsa-mir-208a)”, for which the “apparent KD of MS2 coat protein” value by setting is: under setting [3], 0.148 µM; under setting [2], 0.0619 µM; under setting [4], 0.232 µM.

Take “UAAACUUCUUUUAGUGUAAUGCAAGUGAUACAUGAGGAUCACCCAUGUUUUGGAUCGUGUUAUUUUGUUCGUCUUAA [JR_SHM208A_Sub077] (puzzle: Sensor for hsa-mir-208a)”: the “apparent KD of MS2 coat protein” value by setting is: under setting [3], 0.0332 µM; under setting [2], 0.0303 µM; under setting [4], 0.0429 µM.

As to “UAAACUUCUUUUAGUGUAAUGCAUGUGAUACAUGAGGAUCACCCAUGUUUUGGUUCGUUUUAUUUUGUUCGUCUUAA [JR_SHM208A_Sub078] (puzzle: Sensor for hsa-mir-208a)”, the “apparent KD of MS2 coat protein” value came to 0.0593 µM under setting [3], 0.0439 µM under setting [2] and 0.0818 µM under setting [4].

On to “UAAAGAUAGCGAGGAUAUCGCGAGGAUCACCCGUGAGAAGGCGCAGAGCCGAGGAUCACCCGGCUGAUCCUGAGGAGGAGGUCA (Eterna round: R96, puzzle: Same State NG 1)”, for which the “apparent KD of MS2 coat protein” value (input ligand: FMN 200 uM) came out at 0.108 µM, the “apparent KD of MS2 coat protein” value under setting [1] stood at 0.197 µM and the “apparent KD of MS2 coat protein” value (input ligand: none) stood at 0.249 µM.

As to “UAAAUACAUGAGGAUCACCCAUGUCAAAAGACAUGAGGAUAUGUACAGACUUCGGUCUGUACAGAAGGCAUGAAAA [salish99_ss1_r3_095] (Eterna round: R96, puzzle: Same State 1)”, under setting [1], the “apparent KD of MS2 coat protein” value stood at 0.397 µM.

On to “UAAAUACAUGAGGAUCACCCAUGUCAAAAGACAUGAGGAUAUGUACAGACUUCGGUCUGUACAGAAGGCAUGAAAA [salish99_ss1_r3_095] (puzzle: Same State 1)”, for which the “apparent KD of MS2 coat protein” value is, setting by setting: under setting [3], 0.0436 µM; under setting [2], 0.708 µM; under setting [4], 0.89 µM.

In the case of “UAACAGUACAAUUUAGAUCUACAUGAGGAUCACCCAUGUACUGAGGAUAUCAGCUCGAAUAGAGCUGAGAAGGCAGAAGAACUA [SSNG3/11-A1] (Eterna round: R96, puzzle: Same State NG 3)”, the “apparent KD of MS2 coat protein” value reads like this: (input ligand: FMN 200 uM) 0.0358 µM; under setting [1], 0.127 µM; (input ligand: none) 0.203 µM.

For the sequence “UAACAGUACAAUUUAGAUCUACAUGAGGAUCACCCAUGUACUGAGGAUAUCAGCUCGAUUAGAGCUGAGAAGGCAGAAGAACUA [SSNG3/11-A2] (Eterna round: R96, puzzle: Same State NG 3)”, the “apparent KD of MS2 coat protein” value is, setting by setting: (input ligand: FMN 200 uM) 0.0485 µM; under setting [1], 0.173 µM; (input ligand: none) 0.344 µM.

Turning to “UAAUGUUAGCGAGGAUAUCGUUUAUUGAAGUUACGAGAAGGCGCUCUUCUUACAUGAGGAUCACCCAUGUCUGUUUUGCAUGAU [JR_SSNG1_Sub068] (Eterna round: R96, puzzle: Same State NG 1)”, the “apparent KD of MS2 coat protein” value under setting [1] is 0.05 µM.

In the case of “UAAUGUUUGCGAGGAUAUCGUUUAUUGAAGUUACGAGAAGGCGCUCUUCUUACAUGAGGAUCACCCAUGUCUGUUUUGCAUGAU [JR_SSNG1_Sub069] (Eterna round: R96, puzzle: Same State NG 1)”, the “apparent KD of MS2 coat protein” value is 0.0444 µM (input ligand: FMN 200 uM), 0.0568 µM under setting [1] and 0.0815 µM (input ligand: none).

For the sequence “UAAUUAAAGCAAGGAUAUCACGUCGAAUAGACGUGAGAAGGUGCUCCUUACAUGAGGAUCACCCAUGUAUAACAUGAAUAAUUA [SSNG1/10-B1] (Eterna round: R96, puzzle: Same State NG 1)”, the “apparent KD of MS2 coat protein” value was 0.166 µM (input ligand: FMN 200 uM), 0.702 µM under setting [1] and 0.741 µM (input ligand: none).

Turning to “UAAUUAAGUCAAGGAUAUCACGUCGAAUAGACGUGAGAAGGUGACCAAUACAUGAGGAUCACCCAUGUAAUACAUGAAUAAUUA [SSNG1/12-B1] (Eterna round: R96, puzzle: Same State NG 1)”, the “apparent KD of MS2 coat protein” value worked out at 0.0277 µM (input ligand: FMN 200 uM), 0.0358 µM under setting [1] and 0.0459 µM (input ligand: none).

“UAAUUAAGUCAAGGAUAUCACGUCGAUUAGACGUGAGAAGGUGAUUAAUACAUGAGGAUCACCCAUGUAAUACAUGAAUAAUUA [SSNG1/11-B2] (Eterna round: R96, puzzle: Same State NG 1)”: the “apparent KD of MS2 coat protein” value (input ligand: FMN 200 uM) amounted to 0.0371 µM, the “apparent KD of MS2 coat protein” value under setting [1] amounted to 0.0614 µM and the “apparent KD of MS2 coat protein” value (input ligand: none) came out at 0.0761 µM.

Regarding “UACAAACGCGGAGGAUAUGGGCGAGGCGCAGAGGUCUGCGUCAAAACAUGAGGAUCACCCAUGUCCCAGAAGGCCGCGCAAACU [Anorra] (Eterna round: R96, puzzle: Same State NG 2)”, the “apparent KD of MS2 coat protein” value was determined as 0.0163 µM (input ligand: FMN 200 uM), 0.0738 µM under setting [1] and 0.0561 µM (input ligand: none).

For “UACAAUCUAUCUGAGGAUAUCAUGAAAAAAACAUGAGGAUCACCCAUGUGCAGGAAAACUGCAUAUGAGAAGGCAGAUAGAUUGC [salish99_SS2_r3_008] (Eterna round: R96, puzzle: Same State 2)”, the “apparent KD of MS2 coat protein” value under setting [1] was found to be 0.458 µM.

On to “UACAAUCUAUCUGAGGAUAUCAUGAAAAAAACAUGAGGAUCACCCAUGUGCAGGAAAACUGCAUAUGAGAAGGCAGAUAGAUUGC [salish99_SS2_r3_008] (puzzle: Same State 2)”, for which the “apparent KD of MS2 coat protein” value came to 0.0341 µM under setting [3], 0.806 µM under setting [2] and 1.32 µM under setting [4].
